Assay results: US12358959B2, “Compositions and methods for oligodendrocyte development” (CHILDREN'S MEDICAL CENTER CORPORATION, priority 2016, dated 2025)
Each block holds one molecule with its values, some of them ahead of it.

Assays:
[1] = target: T1, GPR56^N (Mus musculus, UniProt Q8K209); assay: In vitro biotinylation/proteomics pull-down from mixed glial cell lysate with mass spectrometry; details: peptide sequences specific for binding to GPR56^N
T1 construct: Using the soluble N-terminal fragment of GPR56 (GPR56^N); made in house
From the text: To identify the ligand of GPR56 in OPCs, an in vitro biotinylation/proteomics approach was employed using single-step capture on streptavidin beads to purify the binding partner(s) of GPR56 (FIGS. 2A-2B). Proteins with more than five identified tryptic peptides in the Mass Spectrometry (MS) output from three independent experiments are listed at Table 1.
(§1) GPR56^N and GPR56^Ndel fusions proteins with either mFc or hFc tag were generated as previously described (Luo et al. Proc Natl Acad Sci USA 108, 12925-12930, 2011). BirA enzyme was used to in vitro biotinylate GPR56^N-mFc-biotag protein as previously described (De Laurenzi and Melino Mol Cell Biol 21, 148-155, 2001). Mixed glial cell lysate was incubated with biotinylated GPR56^N protein in lysis buffer [20 mM Hepes (pH 7.3), 150 mM NaCl, and 5 mM MgCl2] with protein inhibitor mixture (Roche Molecular Biochemicals) and 1% Brij 96 (Fluka). Streptavidin beads (Sigma) were used to affinity purify immunocomplexes. GPR56-associated proteins were eluted in 2×SDS loading buffer, subjected to SDS/PAGE. The whole lane was used for MS at the Taplin Biological Mass Spectrometry at Havard Medical School. MS data were searched against the mouse International Protein Index (IPI mouse 339) database using the protein identification software Mascot (v2.2.04, Matrix Sciences) (Luo et al. Proc Natl Acad Sci USA 108, 12925-12930, 2011).
as §1, with “al.,” for “al.”, “(Stacey et al., J” for “(De Laurenzi and Melino Mol Cell”, “Chem 277, 29283-29293, 2002).” for “21, 148-155, 2001).”, “(20” for “[20”, “[pH 7.3],” for “(pH 7.3),”, “MgCl2)” for “MgCl2]”

[2] = target: T2, Transglutaminase 2 (Tgm2), mouse, endogenous (mixed glial cell lysate / microglia-derived) (mouse, UniProt P21981 2-686); assay: figure legend of the summary model
T2 construct: Endogenous protein captured from lysate, or present in mouse tissue; also called TG2; microglial TG2
T2 sequence (looked up): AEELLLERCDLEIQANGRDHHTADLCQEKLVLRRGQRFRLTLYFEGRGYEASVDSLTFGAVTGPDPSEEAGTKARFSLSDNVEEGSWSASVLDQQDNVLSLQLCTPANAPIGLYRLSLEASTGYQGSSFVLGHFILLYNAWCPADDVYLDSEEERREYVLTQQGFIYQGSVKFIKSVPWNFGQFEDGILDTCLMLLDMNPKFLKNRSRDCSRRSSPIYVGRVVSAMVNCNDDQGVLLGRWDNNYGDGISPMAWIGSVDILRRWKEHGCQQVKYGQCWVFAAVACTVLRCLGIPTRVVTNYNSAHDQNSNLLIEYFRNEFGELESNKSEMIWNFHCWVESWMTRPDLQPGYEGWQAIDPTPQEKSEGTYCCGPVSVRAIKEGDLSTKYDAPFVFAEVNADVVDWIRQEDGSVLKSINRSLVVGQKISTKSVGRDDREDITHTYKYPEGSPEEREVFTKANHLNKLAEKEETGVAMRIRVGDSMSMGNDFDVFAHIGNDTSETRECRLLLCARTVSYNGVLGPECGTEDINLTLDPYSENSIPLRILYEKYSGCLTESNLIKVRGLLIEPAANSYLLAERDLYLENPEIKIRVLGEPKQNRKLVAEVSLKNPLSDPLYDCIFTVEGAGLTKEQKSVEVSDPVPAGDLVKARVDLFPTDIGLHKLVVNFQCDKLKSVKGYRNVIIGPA

[3] = target: T3, human recombinant Transglutaminase 2 (TG2) (human, UniProt P21980 1-687, limits assumed); assay: told in words; NTF release from HEK 293T cells expressing mouse GPR56
T3 construct: also called recombinant TG2; recombinant TGM2
T3 sequence: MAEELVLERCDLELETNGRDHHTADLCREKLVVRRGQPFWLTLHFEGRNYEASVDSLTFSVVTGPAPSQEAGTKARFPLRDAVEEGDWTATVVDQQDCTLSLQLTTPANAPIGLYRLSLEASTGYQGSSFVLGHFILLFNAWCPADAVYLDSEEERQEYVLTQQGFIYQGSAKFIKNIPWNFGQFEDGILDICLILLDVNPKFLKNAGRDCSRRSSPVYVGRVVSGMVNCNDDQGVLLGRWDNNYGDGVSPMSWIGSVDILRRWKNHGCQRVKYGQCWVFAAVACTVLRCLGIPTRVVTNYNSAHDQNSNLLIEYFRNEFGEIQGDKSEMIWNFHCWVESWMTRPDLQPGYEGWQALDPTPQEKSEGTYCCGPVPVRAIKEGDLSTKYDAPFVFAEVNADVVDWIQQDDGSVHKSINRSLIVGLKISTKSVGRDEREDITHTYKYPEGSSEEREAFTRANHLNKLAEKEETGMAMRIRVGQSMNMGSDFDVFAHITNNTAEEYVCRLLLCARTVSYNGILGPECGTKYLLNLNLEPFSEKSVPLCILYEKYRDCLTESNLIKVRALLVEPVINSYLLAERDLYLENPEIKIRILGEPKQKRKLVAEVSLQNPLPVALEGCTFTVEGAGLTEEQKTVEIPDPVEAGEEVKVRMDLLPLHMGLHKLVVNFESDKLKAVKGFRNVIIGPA
From the text: HEK 293T cells were transiently transfected with mouse Gpr56 cDNA. […] The conditioned media were harvested, filtered, and concentrated as previously described. Equal volumes of the concentrated media were used for Western blot (Luo et al., PLOS One 9, e100043, 2014), while the cell pellets were used for GTP-Rho pull-down assay.

[4] = target: GPR56 NTF (GPR56^N) (Mus musculus, UniProt Q8K209); details: between amino acids 27-160; cited from earlier work
[5] = target: GPR56 NTF (GPR56^N) (Mus musculus, UniProt Q8K209, DEL93-142); details: aa 93-142 deleted; cited from earlier work
GPR56 NTF (GPR56^N) (Mus musculus, UniProt Q8K209, DEL93-142), sequence (Q8K209 with tags, fused parts or gaps DEL93-142): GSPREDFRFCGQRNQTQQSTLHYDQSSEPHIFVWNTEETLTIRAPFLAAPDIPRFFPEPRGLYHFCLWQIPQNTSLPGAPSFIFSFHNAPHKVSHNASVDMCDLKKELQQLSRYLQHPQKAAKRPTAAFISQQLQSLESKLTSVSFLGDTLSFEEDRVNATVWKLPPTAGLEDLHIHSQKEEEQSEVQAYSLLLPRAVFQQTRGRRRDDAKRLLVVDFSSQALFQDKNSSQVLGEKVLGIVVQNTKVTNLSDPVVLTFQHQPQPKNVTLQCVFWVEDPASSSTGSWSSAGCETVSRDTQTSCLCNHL

Peptide Number (Exp1) ([1]; experiment 1): 12 | Peptide Number (Exp2) ([1]; experiment 2): 11 | Peptide Number (Exp3) ([1]; experiment 3): 9 | binding result [2]: binds | binding result [3]: binds
B1: GPR56 (ADGRG1), mouse, on cells (oligodendrocyte precursor cells; HEK 293T cells transfected with mouse Gpr56 cDNA) (receptor, UniProt Q8K209 26-687, looked up)
chain: GSPREDFRFCGQRNQTQQSTLHYDQSSEPHIFVWNTEETLTIRAPFLAAPDIPRFFPEPRGLYHFCLYWSRHTGRLHLRYGKHDYLLSSQASRLLCFQKQEQSLKQGAPLIATSVSSWQIPQNTSLPGAPSFIFSFHNAPHKVSHNASVDMCDLKKELQQLSRYLQHPQKAAKRPTAAFISQQLQSLESKLTSVSFLGDTLSFEEDRVNATVWKLPPTAGLEDLHIHSQKEEEQSEVQAYSLLLPRAVFQQTRGRRRDDAKRLLVVDFSSQALFQDKNSSQVLGEKVLGIVVQNTKVTNLSDPVVLTFQHQPQPKNVTLQCVFWVEDPASSSTGSWSSAGCETVSRDTQTSCLCNHLTYFAVLMVSSTEVEATHKHYLTLLSYVGCVISALACVFTIAAYLCSRRKSRDYTIKVHMNLLSAVFLLDVSFLLSEPVALTGSEAACRTSAMFLHFSLLACLSWMGLEGYNLYRLVVEVFGTYVPGYLLKLSIVGWGFPVFLVTLVALVDVNNYGPIILAVRRTPERVTYPSMCWIRDSLVSYVTNLGLFSLVFLFNLAMLATMVVQILRLRPHSQNWPHVLTLLGLSLVLGLPWALVFFSFASGTFQLVILYLFSIITSFQGFLIFLWYWSMRFQAQGGPSPLKNNSDSAKLPISSGSTSSSRI
notes: whole, on cells; not used here; also called OPC GPR56; OPC-GPR56

B2: Col III: collagen III (gene symbol Col3a1), ligand for GPR56 in the developing cerebral cortex (protein, UniProt P08121 155-1219, looked up)
Collagen alpha-1(III) chain: QFDSYDVKSGVGGMGGYPGPAGPPGPPGPPGSSGHPGSPGSPGYQGPPGEPGQAGPAGPPGPPGALGPAGPAGKDGESGRPGRPGERGLPGPPGIKGPAGMPGFPGMKGHRGFDGRNGEKGETGAPGLKGENGLPGDNGAPGPMGPRGAPGERGRPGLPGAAGARGNDGARGSDGQPGPPGPPGTAGFPGSPGAKGEVGPAGSPGSNGSPGQRGEPGPQGHAGAQGPPGPPGNNGSPGGKGEMGPAGIPGAPGLIGARGPPGPAGTNGIPGTRGPSGEPGKNGAKGEPGARGERGEAGSPGIPGPKGEDGKDGSPGEPGANGLPGAAGERGPSGFRGPAGPNGIPGEKGPPGERGGPGPAGPRGVAGEPGRDGTPGGPGIRGMPGSPGGPGNDGKPGPPGSQGESGRPGPPGPSGPRGQPGVMGFPGPKGNDGAPGKNGERGGPGGPGLPGPAGKNGETGPQGPPGPTGPAGDKGDSGPPGPQGLQGIPGTGGPPGENGKPGEPGPKGEVGAPGAPGGKGDSGAPGERGPPGTAGIPGARGGAGPPGPEGGKGPAGPPGPPGASGSPGLQGMPGERGGPGSPGPKGEKGEPGGAGADGVPGKDGPRGPAGPIGPPGPAGQPGDKGEGGSPGLPGIAGPRGGPGERGEHGPPGPAGFPGAPGQNGEPGAKGERGAPGEKGEGGPPGPAGPTGSSGPAGPPGPQGVKGERGSPGGPGTAGFPGGRGLPGPPGNNGNPGPPGPSGAPGKDGPPGPAGNSGSPGNPGIAGPKGDAGQPGEKGPPGAQGPPGSPGPLGIAGLTGARGLAGPPGMPGPRGSPGPQGIKGESGKPGASGHNGERGPPGPQGLPGQPGTAGEPGRDGNPGSDGQPGRDGSPGGKGDRGENGSPGAPGAPGHPGPPGPVGPSGKSGDRGETGPAGPSGAPGPAGARGAPGPQGPRGDKGETGERGSNGIKGHRGFPGNPGPPGSPGAAGHQGAIGSPGPAGPRGPVGPHGPPGKDGTSGHPGPIGPPGPRGNRGERGSEGSPGHPGQPGPPGPPGAPGPCCGGGAAAIAGVGGEKSGGFSPYYG
Binding to GPR56 NTF (GPR56^N) [4]: binds | Binding to GPR56^Ndel [5]: abrogated Col III binding
